Assay results published in paper PMC10940649, “Structural insights into human organic cation transporter 1 transport and inhibition” (Cell Discovery, 2024).

Target: T1, human organic cation transporter 1 (hOCT1) (Homo sapiens, UniProt O15245)
T1 construct: human organic cation transporter 1 (SLC22A1), full-length, wild-type construct used for cryo-EM structure determination; A 3C protease cleavage site stands between hOCT1 and GFPuv-His6; The FSEC-TS assay used hOCT1-GFP; also called SLC22A1; hOCT1-GFP; source: Sf9 insect cells (baculovirus), purified (Ni-NTA, protein C column, SEC) in DDM or LMNG micelles
T1 sequence (O15245 whole entry): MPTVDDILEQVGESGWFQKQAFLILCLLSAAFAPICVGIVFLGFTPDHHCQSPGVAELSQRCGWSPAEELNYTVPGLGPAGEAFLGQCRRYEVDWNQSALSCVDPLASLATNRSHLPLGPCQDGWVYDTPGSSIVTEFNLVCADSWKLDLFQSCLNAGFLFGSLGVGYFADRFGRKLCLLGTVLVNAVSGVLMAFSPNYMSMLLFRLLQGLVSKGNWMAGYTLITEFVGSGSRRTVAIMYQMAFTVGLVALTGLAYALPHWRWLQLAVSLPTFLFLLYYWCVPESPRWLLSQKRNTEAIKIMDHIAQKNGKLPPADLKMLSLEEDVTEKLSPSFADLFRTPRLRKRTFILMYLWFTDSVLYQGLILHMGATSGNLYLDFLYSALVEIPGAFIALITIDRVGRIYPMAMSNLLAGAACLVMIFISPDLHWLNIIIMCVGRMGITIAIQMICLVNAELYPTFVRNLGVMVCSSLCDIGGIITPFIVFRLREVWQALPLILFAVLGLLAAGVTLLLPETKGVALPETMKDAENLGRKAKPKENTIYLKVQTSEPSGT
Assay: SEC; Nb56 with hOCT1; co-migration on size exclusion chromatography
Settings: both partners purified

B1: Nb56 (VHH)
VHH: QVQLQESGGGLVQAGGSLRLSCAASGTIFYYEIMGWYRQAPGKEREFVATIDQGGITNYADSVKGRFTISRDNAKNTVYLQMNSLKPEDTAVYYCAVPDVFVGRGWDYLIYWGQGTQVTVSS
notes: Nanobody selected from a synthetic yeast display library with hOCT1 in LMNG as bait; Nb56 was modelled in the deposited hOCT1-Nb5660 structures (hOCT1-apo1, -apo2, -apo3); source: E. coli BL21 (DE3), pET26b, purified (Ni-NTA, SEC)
B1: binds.
